The source of these data is paper PMC7339825 (Nature structural & molecular biology, 2020).

B1: binary TSG101-VPS28 ESCRT-I head subcomplex, wild type (complex)
chain 1: QSENNDIDEVIIPTAPLYKQILNLYAEENAIEDTIFYLGEALRRGVIDLDVFLKHVRLLSRKQFQLRALMQKARKTAGLSD
chain 2: MFHGIPATPGIGAPGNKPELYEEVKLYKNAREREKYDNMAELFAVVKTMQALEKAYIKDCVSPSEYTAACSRLLVQYKAAFRQVQGSEISSIDEFCRKFRLDCPLAMERIKEDRPITIKDDK

The series “SEC” concerns the molecule itself. Description: SEC. (Size exclusion chromatography separates by hydrodynamic size, large species first.)
Series [1] has as its target B1. The series can be described thus: pull-down.

Regarding B1, the binding result in “SEC” is “binds”.

B2: GST-TSG101 UEV domain (residues 2-145) (domain or fragment)
chain: AVSESQLKKMVSKYKYRDLTVRETVNVITLYKDLKPVLDSYVFNDGSSRELMNLTGTIPVPYRGNTYNIPICLWLLDTYPYNPPICFVKPTSSMTIKTGKHVDANGKIYLPYLHEWKHPQSDLLGLIQVMIVVFGDEPPVFSRP
As to B2, in series [1], the binding result is given as “binds”.
